Measured values as given in patent US20090297524A1 (DOMANTIS, published 2009).

T1: Recombinant human CD40L (human, UniProt P29965 108-261, limits assumed)
T1 construct: also called CD40 ligand
T1 sequence (looked up): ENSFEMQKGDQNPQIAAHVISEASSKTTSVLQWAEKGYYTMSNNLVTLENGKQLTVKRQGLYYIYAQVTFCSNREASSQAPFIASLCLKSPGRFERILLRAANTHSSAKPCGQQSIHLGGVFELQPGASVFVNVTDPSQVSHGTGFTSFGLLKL

B1: 30K PEG-MAL PEGylated DOM8-24cys (other)
VH: ASTEVQLLESGGGLVQPGGSLRLSCAASGFTFSNYQMAWVRQAPGKGLEWVSSITSEGGSTYYADSVKGRFTISRDNSKNTLYLQMNSLRAEDTAVYYCAKPGKNFDYWGQGTLVTVSC
modifications: 30K PEG-MAL on the engineered C-terminal cysteine
notes: PEGylated monomer; also called 30K PEG DOM8-24cys
B2: 40K PEG2-MAL PEGylated DOM8-24cys (other)
VH: B1 VH
modifications: 40K PEG2-MAL on the engineered C-terminal cysteine
notes: PEGylated monomer; also called 40K PEG DOM8-24cys

Columns and labels:
Recombinant human CD40L [1] = biological target: T1, Recombinant human CD40L; experiment: CD40L receptor binding assay: inhibition of CD40L (3 ng/ml) binding to coated CD40/Fc; 30K PEG
Procedure: (§1) A 96 well Nunc Maxisorp assay plate was coated overnight at 4° C. with 100 μl per well of recombinant human CD40/Fc (R&D Systems) at 0.5 μg/ml in carbonate buffer. The plate was washed 3 times with 300 μl of 0.05% Tween/PBS and 3 times with 300 μl of PBS using a Tecan plate washer. The wells were blocked using 200 μl of PBS containing 2% (w/v) BSA and incubated for a minimum of 1 h at room temperature. The wells were washed as above, then 50 μl of purified dAb protein was added to each well. […] The plate was washed as described above, then 100 μl HRP conjugated anti-biotin antibody (1:5000 dilution in diluent) added to each well and the plate incubated for 1 hr at room temperature. The plate was washed again as described above using a Tecan plate washer and the assay developed using 100 μl of SureBlue 1-Component TMB MicroWell Peroxidase solution (the plate was left at room temperature for up to 20 min). The reaction was stopped by the addition of 100 μl M hydrochloric acid. The OD₄₅₀ₙₘ of the plate was assayed within 30 minutes of acid addition. The OD₄₅₀ₙₘ is proportional to the amount of bound streptavidin-HRP conjugate, therefore the greater the degree of dAb inhibition the lower the OD₄₅₀ₙₘ of the resulting signal.

Recombinant human CD40L [2] = biological target: T1, Recombinant human CD40L; experiment: CD40L receptor binding assay (RBA, ELISA): dAb titrated against 3 ng/ml CD40L binding to plate-coated CD40/Fc
Procedure: as §1

Recombinant human CD40L [3] = biological target: T1, Recombinant human CD40L; experiment: CD40L receptor binding assay: inhibition of CD40L (3 ng/ml) binding to coated CD40/Fc; 40K PEG
Procedure: as §1

Binder	IC50 (Recombinant human CD40L [1]) [nM]	IC50 (read off the curve) (Recombinant human CD40L [2]) [nM]	IC50 (Recombinant human CD40L [3]) [nM]
B1	~1	~0.5	
B2		~1	~1
